# T1: fetuin (UniProt P12763 19-359)
# T1 sequence (looked up): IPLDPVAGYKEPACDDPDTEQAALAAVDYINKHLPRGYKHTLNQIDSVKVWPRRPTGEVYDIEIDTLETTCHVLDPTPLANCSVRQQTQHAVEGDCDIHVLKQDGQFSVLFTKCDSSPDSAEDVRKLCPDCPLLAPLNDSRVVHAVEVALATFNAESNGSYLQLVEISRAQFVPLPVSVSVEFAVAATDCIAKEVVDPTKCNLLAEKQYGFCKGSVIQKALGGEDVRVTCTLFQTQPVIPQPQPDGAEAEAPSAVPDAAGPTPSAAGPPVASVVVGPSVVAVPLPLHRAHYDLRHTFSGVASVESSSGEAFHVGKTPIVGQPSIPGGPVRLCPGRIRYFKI
# B1: odorranalectin (peptide)
# peptide: YASPKCFRYPNGVLACT
# notes: odorranalectin, mature 17-residue peptide at the C-terminus of the 61-residue precursor, Odorrana grahami; follows the di-basic site K42R43 of the precursor; One intramolecular disulfide bond Cys6-Cys16; Immobilised on a CM-5 chip by amine coupling; Details of purification and synthesis are in Materials and Methods S1; also called lectin-like peptide; source: purified from O. grahami skin …
# Key:
# [1] = biological target: Bovine submaxillary mucin (bovine, heavily O-glycosylated (sialylated) mucin preparation; the polypeptide is not given, and the main bovine submaxillary mucin (MUC19) is assumed with limits from the CHAIN feature; the pre); experiment: SPR; Biacore 3000; odorranalectin immobilised on sensor chip CM-5 by amine coupling, glycoproteins as analytes diluted in HBS-EP (10 mM HEPES-buffered saline, 3 mM EDTA, 0.005% surfactant P-20, pH 7.4); 1:1 binding model; KD calculated from ka and kd; details: both partners purified
# fetuin = biological target: T1, fetuin; experiment: as above; details: both partners purified
binder,measurement,setting,value
B1,Kd,[1],2900 nM
same,Kd,fetuin,211 nM
